This note sets out measurements from PMC11225919.

This data set concerns the target T1, Fur (6xHis-tagged) (Salmonella enterica serovar Infantis 119944) (UniProt A0A4Z0KGQ7).
T1 sequence: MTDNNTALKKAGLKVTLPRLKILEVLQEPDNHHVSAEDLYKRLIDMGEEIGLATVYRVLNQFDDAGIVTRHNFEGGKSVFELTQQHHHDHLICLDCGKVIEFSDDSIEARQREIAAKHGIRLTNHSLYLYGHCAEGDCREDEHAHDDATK
Description: EMSA.

Take “CCGGGGTCGCGCCCCCATAAACGCCTCCCTGACAGAGGCCCGGATACCCCATCCGGGCCTCTGTTCTTTCCGCCTGTTACCAACCCGAAACGGGCATAAATAAACCCGTTTCGGGTAGCATACAATTGTTAATAATTATTATTCTCATATGAGCAATGCTTTTCGGTAAGACGTGCCATCAGGAGGAAGA (double strand) [irp2 promoter (pESI)]”: the binding entry was “binds”.
